In data set [1] the target is TelA (107–442) N-terminal domain deletion mutant with the E337K mutation (Agrobacterium tumefaciens).
The target of the next data set is T1, TelA (ΔN) (Agrobacterium tumefaciens, UniProt Q7CWV1 107-442).
T1 sequence: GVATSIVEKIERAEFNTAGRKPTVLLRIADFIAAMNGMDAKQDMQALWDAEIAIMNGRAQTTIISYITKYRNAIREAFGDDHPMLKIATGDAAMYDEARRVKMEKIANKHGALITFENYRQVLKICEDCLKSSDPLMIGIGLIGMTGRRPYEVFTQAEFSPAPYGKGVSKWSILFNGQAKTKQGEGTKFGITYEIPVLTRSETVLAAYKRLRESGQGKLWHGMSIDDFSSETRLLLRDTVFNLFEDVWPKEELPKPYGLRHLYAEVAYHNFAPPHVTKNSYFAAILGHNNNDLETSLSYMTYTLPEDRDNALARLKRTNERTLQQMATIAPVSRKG
The experiment in a line: EMSA; 2 mM Ca2+; EMSA: HEPES pH 7.6, 1 mM DTT, 2 mM CaCl2, 100 ug/mL BSA, 50 mM potassium glutamate, 0.8 ug/mL supercoiled pUC19 competitor, 76 ng/mL heparin sulphate, 2 nM labeled rTel, 0 C. The following applies: protein: recombinant. For orientation: Mobility shift assays separate free from complexed probe on a gel.

A further data set deals with T2, TelA (ΔC3; D202AE337K) (Agrobacterium tumefaciens, UniProt Q7CWV1 1-439, D202A;E337K).
T2 sequence: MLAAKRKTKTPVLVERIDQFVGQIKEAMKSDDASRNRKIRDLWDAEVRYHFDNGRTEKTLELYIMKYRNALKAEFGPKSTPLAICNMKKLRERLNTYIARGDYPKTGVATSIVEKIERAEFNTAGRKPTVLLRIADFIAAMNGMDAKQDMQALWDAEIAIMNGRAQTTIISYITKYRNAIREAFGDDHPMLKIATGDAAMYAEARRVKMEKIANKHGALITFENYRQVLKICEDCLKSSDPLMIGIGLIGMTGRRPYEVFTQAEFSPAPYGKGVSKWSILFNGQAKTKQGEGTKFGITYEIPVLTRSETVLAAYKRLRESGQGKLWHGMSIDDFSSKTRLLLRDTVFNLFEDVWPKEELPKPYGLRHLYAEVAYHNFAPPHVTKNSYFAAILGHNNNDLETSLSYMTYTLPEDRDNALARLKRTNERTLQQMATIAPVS
The data set is described as above. The following applies: protein: recombinant; chain copies: 2; label: 5'-fluorescein on strand 1; 5' overhang 2 nt at both ends.

The next data set deals with T3, TelA (ΔNΔC3; D202RE337K) (Agrobacterium tumefaciens, UniProt Q7CWV1 107-439, D202R;E337K).
T3 sequence: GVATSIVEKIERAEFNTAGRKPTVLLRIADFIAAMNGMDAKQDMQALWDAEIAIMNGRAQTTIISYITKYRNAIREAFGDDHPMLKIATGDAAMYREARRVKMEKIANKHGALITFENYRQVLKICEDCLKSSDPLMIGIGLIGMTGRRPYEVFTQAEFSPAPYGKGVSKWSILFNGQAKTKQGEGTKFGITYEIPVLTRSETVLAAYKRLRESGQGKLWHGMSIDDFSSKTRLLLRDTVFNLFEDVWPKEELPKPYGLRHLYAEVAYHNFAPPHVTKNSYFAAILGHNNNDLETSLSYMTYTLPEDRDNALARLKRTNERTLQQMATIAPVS
Described as above. Particulars: protein: recombinant; chain copies: 2; label: 5'-fluorescein on strand 1; 5' overhang 2 nt at both ends.

For data set [2], the target named is T4, TelA N-terminal domain (N; K9E) (Agrobacterium tumefaciens, UniProt Q7CWV1 1-106, K9E).
T4 sequence: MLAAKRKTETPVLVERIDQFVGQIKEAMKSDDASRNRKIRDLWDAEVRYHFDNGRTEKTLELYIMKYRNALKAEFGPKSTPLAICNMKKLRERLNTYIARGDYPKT
The data set is described as above. The following applies: protein: recombinant; label: 5'-fluorescein on strand 1; 5' overhang 2 nt at both ends.

The next data set concerns the target T5, TelA wild type (Agrobacterium tumefaciens, UniProt Q7CWV1 1-442).
T5 sequence: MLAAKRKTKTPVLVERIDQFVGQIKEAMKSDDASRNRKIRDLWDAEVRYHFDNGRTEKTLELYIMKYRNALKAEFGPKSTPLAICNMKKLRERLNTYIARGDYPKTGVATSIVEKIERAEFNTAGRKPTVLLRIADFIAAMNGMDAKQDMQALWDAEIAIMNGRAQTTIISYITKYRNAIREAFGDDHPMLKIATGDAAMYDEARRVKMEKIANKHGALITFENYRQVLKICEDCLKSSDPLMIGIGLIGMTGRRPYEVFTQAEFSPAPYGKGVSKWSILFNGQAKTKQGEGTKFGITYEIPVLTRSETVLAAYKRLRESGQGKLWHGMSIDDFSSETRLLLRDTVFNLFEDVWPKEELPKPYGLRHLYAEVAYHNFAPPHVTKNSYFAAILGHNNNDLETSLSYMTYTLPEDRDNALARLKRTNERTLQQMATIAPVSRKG
The experiment in a line: EMSA; 2 mM Ca2+; c1 and c2 complexes; EMSA: HEPES pH 7.6, 1 mM DTT, 2 mM CaCl2, 100 ug/mL BSA, 50 mM potassium glutamate, 0.8 ug/mL supercoiled pUC19 competitor, 76 ng/mL heparin sulphate, 2 nM labeled rTel, 0 C. Particulars: protein: recombinant; chain copies: 2; label: 5'-fluorescein on strand 1; 5' overhang 2 nt at both ends.

For data set [3], the target named is T6, TelA N-terminal domain (N) (Agrobacterium tumefaciens, UniProt Q7CWV1 1-106).
T6 sequence: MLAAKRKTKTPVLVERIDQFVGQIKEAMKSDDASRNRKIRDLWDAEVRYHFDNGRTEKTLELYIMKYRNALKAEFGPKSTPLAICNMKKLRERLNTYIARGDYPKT
The experiment in a line: EMSA; 2 mM Ca2+; laddering bandshift; EMSA: HEPES pH 7.6, 1 mM DTT, 2 mM CaCl2, 100 ug/mL BSA, 50 mM potassium glutamate, 0.8 ug/mL supercoiled pUC19 competitor, 76 ng/mL heparin sulphate, 2 nM labeled rTel, 0 C. Particulars: protein: recombinant; label: 5'-fluorescein on strand 1; 5' overhang 2 nt at both ends.

In turn, “TelA (1–106), N-terminal domain of the Agrobacterium tumefaciens telomere resolvase TelA (from UniProt A0A822V2W1 1-106) (domain or fragment)” showed a fold reduction of the initial rate of telomere resolution by (ΔN; E337K) at 0°C when the N-terminal domain (N, 800 nM, about 10-fold molar excess) is added in trans in data set [1] of 22 fold.

In turn, “TelA (1–106) N-terminal domain with the K9E mutation (from UniProt A0A822V2W1 1-106) (domain or fragment)” showed a fold reduction of the initial rate of telomere resolution by (ΔN; E337K) at 0°C when (N; K9E) is added in trans in data set [1] of 10 fold.

B1: rTel (OGCB951F/OGCB952) (dsDNA)
DNA 1: AACTCTAACCATTGCGCGATCGATCATAATAACAATATCATGATATTGTTATTGTAATCGATCGCGGATCCCGGGCGTAGCCACGTAGGT
DNA 2: GAACCTACGTGGCTACGCCCGGGATCCGCGATCGATTACAATAACAATATCATGATATTGTTATTATGATCGATCGCGCAATGGTTAGAG
With B1, the binding result with TelA (ΔN) (chain copies: 2, label: 5'-fluorescein on strand 1, 5' overhang 2 nt at both ends) is “no binding”; with TelA (ΔC3; D202AE337K), “binds”; with TelA (ΔNΔC3; D202RE337K) it was “binds”; in data set [2] it was “no binding”; with TelA wild type, “binds”; in data set [3], “binds”.

B2: hairpin telomere (hp), OKBA28F (structured_DNA)
DNA: ATCCCTCTAACCATTGCGCGATCGATCATAATAACAATATCATGATATTGTTATTATGATCGATCGCGCAATGGTTAGAGG
As to B2, in the data set with TelA (ΔN) (label: 5'-fluorescein, hairpin, 5' overhang 3 nt), the binding result is given as “no binding”.

For the origin of these results see article PMC11271964, “Design and characterization of hyperactive mutants of the Agrobacterium tumefaciens telomere resolvase, TelA”.
